In patent publication US20150344570A1 (published 2015):

T1: FcγRIIb extracellular domain with C-terminal His tag (human, UniProt P31994 43-217)
T1 construct: extracellular domain; soluble analyte in Biacore; also called FcgRIIb; not shown: His tag at the C terminus
T1 sequence (looked up): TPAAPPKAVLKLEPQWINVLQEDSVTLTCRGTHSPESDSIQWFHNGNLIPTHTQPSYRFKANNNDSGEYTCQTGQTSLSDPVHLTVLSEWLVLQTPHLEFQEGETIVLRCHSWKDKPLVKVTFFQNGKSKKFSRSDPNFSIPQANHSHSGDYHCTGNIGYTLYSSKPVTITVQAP


Legend:
[1] = biological target: T2, FcγRIa extracellular domain with C-terminal His tag (human, UniProt P12314 16-292); assay: SPR, binding relative to GpH7-A5/GpH7-B3/GpL16-k0 = 100
T2 construct: extracellular domain; soluble analyte in Biacore; also called FcgRI; not shown: His tag at the C terminus
T2 sequence (P12314 16-292): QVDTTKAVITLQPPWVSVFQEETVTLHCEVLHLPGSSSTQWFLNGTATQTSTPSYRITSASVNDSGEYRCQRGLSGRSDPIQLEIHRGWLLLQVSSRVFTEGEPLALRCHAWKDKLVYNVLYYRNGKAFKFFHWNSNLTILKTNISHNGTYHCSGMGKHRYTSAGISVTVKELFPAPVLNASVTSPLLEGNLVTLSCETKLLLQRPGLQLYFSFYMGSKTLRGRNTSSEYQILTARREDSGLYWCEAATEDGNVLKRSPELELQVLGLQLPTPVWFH

[2] = biological target: T1, FcγRIIb extracellular domain with …; assay: as above
[3] = biological target: T2, FcγRIa extracellular domain with …; assay: SPR; He/Con_1a divided by He/Con_2b (FcγRIa against FcγRIIb)
Experimental: The heterodimerized antibodies He Abs in which one of the H chains was introduced with an alteration were assayed for their binding activities to each activating FcγR and inhibitory FcγR according to the method described in Example 4. […] The activating FcγRs in FIGS. 26, 27, 28, and 29 are FcγRIa, FcγRIIa (R), FcγRIIa (H), and FcγRIIIa, respectively.
Analysis of interaction between objective antibody and the FcγR was carried out using Biacore T100 (GE Healthcare). HBS-EP+ (GE Healthcare) was used as the running buffer, and the measurement temperature was set to 25° C. Chips produced by immobilizing the antigen peptide by the amine coupling method to a Series S Sencor Chip CM5 (GE Healthcare), or alternatively, chips produced by allowing preliminarily biotinylated antigen peptides to interact with and immobilize onto a Series S Sensor Chip SA (certified) (GE Healthcare) were used. Antibodies of interest were captured onto an antigen peptide-immobilized chip, and allowed to interact to each FcγR diluted with running buffer. To regenerate and repeatedly use the chip, the antibodies captured on the chip were washed off by reacting 10 mM glycine-HCl, pH 1.5.

Binder | He/Con_1a [1] | He/Con_2b [2] | He_1a/2b (Ia/IIb) [3]
GpH7-A5/GpH7-B3 variant D270_13S/GpL16-k0 (antibody, human IgG1, kappa, change in the GpH7-B3 H chain only; also called He Ab) heavy 1: not shown heavy 2: not shown light: DIVMTQSPLSLPVTPGEPASISCQASESLVHSNRNTYLHWYLQKPGQSPQLLIYKVSNRFSGVPDRFSGSGSGTDFTLKISRVEAEDVGVYYCSQNTHVPPTFGQGTKVEIERTVAAPSVFIFPPSDEQLKSGTASVVCLLNNFYPREAKVQWKVDNALQSGNSQESVTEQDSKDSTYSLSSTLTLSKADYEKHKVYACEVTHQGLSSPVTKSFNRGEC | 75.3 % of control | 44.2 % of control | 1.7 ratio
GpH7-A5/GpH7-B3 variant E269_19Q/GpL16-k0 (antibody, human IgG1, kappa, change in the GpH7-B3 H chain only; also called He Ab) heavy 1: not shown heavy 2: not shown light: DIVMTQSPLSLPVTPGEPASISCQASESLVHSNRNTYLHWYLQKPGQSPQLLIYKVSNRFSGVPDRFSGSGSGTDFTLKISRVEAEDVGVYYCSQNTHVPPTFGQGTKVEIERTVAAPSVFIFPPSDEQLKSGTASVVCLLNNFYPREAKVQWKVDNALQSGNSQESVTEQDSKDSTYSLSSTLTLSKADYEKHKVYACEVTHQGLSSPVTKSFNRGEC | 105 % of control | 44.3 % of control | 2.37 ratio
GpH7-A5/GpH7-B3 variant P271_04F/GpL16-k0 (antibody, human IgG1, kappa, change in the GpH7-B3 H chain only; also called He Ab) heavy 1: not shown heavy 2: not shown light: DIVMTQSPLSLPVTPGEPASISCQASESLVHSNRNTYLHWYLQKPGQSPQLLIYKVSNRFSGVPDRFSGSGSGTDFTLKISRVEAEDVGVYYCSQNTHVPPTFGQGTKVEIERTVAAPSVFIFPPSDEQLKSGTASVVCLLNNFYPREAKVQWKVDNALQSGNSQESVTEQDSKDSTYSLSSTLTLSKADYEKHKVYACEVTHQGLSSPVTKSFNRGEC | 102 % of control | 59.5 % of control | 1.71 ratio
GpH7-A5/GpH7-B3 variant P271_15Y/GpL16-k0 (antibody, human IgG1, kappa, change in the GpH7-B3 H chain only; also called He Ab) heavy 1: not shown heavy 2: not shown light: DIVMTQSPLSLPVTPGEPASISCQASESLVHSNRNTYLHWYLQKPGQSPQLLIYKVSNRFSGVPDRFSGSGSGTDFTLKISRVEAEDVGVYYCSQNTHVPPTFGQGTKVEIERTVAAPSVFIFPPSDEQLKSGTASVVCLLNNFYPREAKVQWKVDNALQSGNSQESVTEQDSKDSTYSLSSTLTLSKADYEKHKVYACEVTHQGLSSPVTKSFNRGEC | 103 % of control | 52.3 % of control | 1.97 ratio
GpH7-A5/GpH7-B3 variant P271_20W/GpL16-k0 (antibody, human IgG1, kappa, change in the GpH7-B3 H chain only; also called He Ab) heavy 1: not shown heavy 2: not shown light: DIVMTQSPLSLPVTPGEPASISCQASESLVHSNRNTYLHWYLQKPGQSPQLLIYKVSNRFSGVPDRFSGSGSGTDFTLKISRVEAEDVGVYYCSQNTHVPPTFGQGTKVEIERTVAAPSVFIFPPSDEQLKSGTASVVCLLNNFYPREAKVQWKVDNALQSGNSQESVTEQDSKDSTYSLSSTLTLSKADYEKHKVYACEVTHQGLSSPVTKSFNRGEC | 103 % of control | 58.1 % of control | 1.77 ratio
GpH7-A5/GpH7-B3 variant E269_20W/GpL16-k0 (antibody, human IgG1, kappa, change in the GpH7-B3 H chain only; also called He Ab) heavy 1: not shown heavy 2: not shown light: DIVMTQSPLSLPVTPGEPASISCQASESLVHSNRNTYLHWYLQKPGQSPQLLIYKVSNRFSGVPDRFSGSGSGTDFTLKISRVEAEDVGVYYCSQNTHVPPTFGQGTKVEIERTVAAPSVFIFPPSDEQLKSGTASVVCLLNNFYPREAKVQWKVDNALQSGNSQESVTEQDSKDSTYSLSSTLTLSKADYEKHKVYACEVTHQGLSSPVTKSFNRGEC | 105 % of control | 42.5 % of control | 2.47 ratio
GpH7-A5/GpH7-B3 variant D270_15Y/GpL16-k0 (antibody, human IgG1, kappa, change in the GpH7-B3 H chain only; also called He Ab) heavy 1: not shown heavy 2: not shown light: DIVMTQSPLSLPVTPGEPASISCQASESLVHSNRNTYLHWYLQKPGQSPQLLIYKVSNRFSGVPDRFSGSGSGTDFTLKISRVEAEDVGVYYCSQNTHVPPTFGQGTKVEIERTVAAPSVFIFPPSDEQLKSGTASVVCLLNNFYPREAKVQWKVDNALQSGNSQESVTEQDSKDSTYSLSSTLTLSKADYEKHKVYACEVTHQGLSSPVTKSFNRGEC | 68.5 % of control | 44.9 % of control | 1.53 ratio
GpH7-A5/GpH7-B3 variant P271_16H/GpL16-k0 (antibody, human IgG1, kappa, change in the GpH7-B3 H chain only; also called He Ab) heavy 1: not shown heavy 2: not shown light: DIVMTQSPLSLPVTPGEPASISCQASESLVHSNRNTYLHWYLQKPGQSPQLLIYKVSNRFSGVPDRFSGSGSGTDFTLKISRVEAEDVGVYYCSQNTHVPPTFGQGTKVEIERTVAAPSVFIFPPSDEQLKSGTASVVCLLNNFYPREAKVQWKVDNALQSGNSQESVTEQDSKDSTYSLSSTLTLSKADYEKHKVYACEVTHQGLSSPVTKSFNRGEC | 102 % of control | 67.9 % of control | 1.5 ratio
GpH7-A5/GpH7-B3 variant D270_14T/GpL16-k0 (antibody, human IgG1, kappa, change in the GpH7-B3 H chain only; also called He Ab) heavy 1: not shown heavy 2: not shown light: DIVMTQSPLSLPVTPGEPASISCQASESLVHSNRNTYLHWYLQKPGQSPQLLIYKVSNRFSGVPDRFSGSGSGTDFTLKISRVEAEDVGVYYCSQNTHVPPTFGQGTKVEIERTVAAPSVFIFPPSDEQLKSGTASVVCLLNNFYPREAKVQWKVDNALQSGNSQESVTEQDSKDSTYSLSSTLTLSKADYEKHKVYACEVTHQGLSSPVTKSFNRGEC | 70.6 % of control | 57.8 % of control | 1.22 ratio
GpH7-A5/GpH7-B3 variant D270_19Q/GpL16-k0 (antibody, human IgG1, kappa, change in the GpH7-B3 H chain only; also called He Ab) heavy 1: not shown heavy 2: not shown light: DIVMTQSPLSLPVTPGEPASISCQASESLVHSNRNTYLHWYLQKPGQSPQLLIYKVSNRFSGVPDRFSGSGSGTDFTLKISRVEAEDVGVYYCSQNTHVPPTFGQGTKVEIERTVAAPSVFIFPPSDEQLKSGTASVVCLLNNFYPREAKVQWKVDNALQSGNSQESVTEQDSKDSTYSLSSTLTLSKADYEKHKVYACEVTHQGLSSPVTKSFNRGEC | 78.2 % of control | 48 % of control | 1.63 ratio
GpH7-A5/GpH7-B3 variant D270_18N/GpL16-k0 (antibody, human IgG1, kappa, change in the GpH7-B3 H chain only; also called He Ab) heavy 1: not shown heavy 2: not shown light: DIVMTQSPLSLPVTPGEPASISCQASESLVHSNRNTYLHWYLQKPGQSPQLLIYKVSNRFSGVPDRFSGSGSGTDFTLKISRVEAEDVGVYYCSQNTHVPPTFGQGTKVEIERTVAAPSVFIFPPSDEQLKSGTASVVCLLNNFYPREAKVQWKVDNALQSGNSQESVTEQDSKDSTYSLSSTLTLSKADYEKHKVYACEVTHQGLSSPVTKSFNRGEC | 67.8 % of control | 40.3 % of control | 1.68 ratio
GpH7-A5/GpH7-B3 variant P271_03V/GpL16-k0 (antibody, human IgG1, kappa, change in the GpH7-B3 H chain only; also called He Ab) heavy 1: not shown heavy 2: not shown light: DIVMTQSPLSLPVTPGEPASISCQASESLVHSNRNTYLHWYLQKPGQSPQLLIYKVSNRFSGVPDRFSGSGSGTDFTLKISRVEAEDVGVYYCSQNTHVPPTFGQGTKVEIERTVAAPSVFIFPPSDEQLKSGTASVVCLLNNFYPREAKVQWKVDNALQSGNSQESVTEQDSKDSTYSLSSTLTLSKADYEKHKVYACEVTHQGLSSPVTKSFNRGEC | 102 % of control | 74.8 % of control | 1.37 ratio
GpH7-A5/GpH7-B3 variant P271_06M/GpL16-k0 (antibody, human IgG1, kappa, change in the GpH7-B3 H chain only; also called He Ab) heavy 1: not shown heavy 2: not shown light: DIVMTQSPLSLPVTPGEPASISCQASESLVHSNRNTYLHWYLQKPGQSPQLLIYKVSNRFSGVPDRFSGSGSGTDFTLKISRVEAEDVGVYYCSQNTHVPPTFGQGTKVEIERTVAAPSVFIFPPSDEQLKSGTASVVCLLNNFYPREAKVQWKVDNALQSGNSQESVTEQDSKDSTYSLSSTLTLSKADYEKHKVYACEVTHQGLSSPVTKSFNRGEC | 102 % of control | 77.5 % of control | 1.32 ratio
GpH7-A5/GpH7-B3 variant P271_07I/GpL16-k0 (antibody, human IgG1, kappa, change in the GpH7-B3 H chain only; also called He Ab) heavy 1: not shown heavy 2: not shown light: DIVMTQSPLSLPVTPGEPASISCQASESLVHSNRNTYLHWYLQKPGQSPQLLIYKVSNRFSGVPDRFSGSGSGTDFTLKISRVEAEDVGVYYCSQNTHVPPTFGQGTKVEIERTVAAPSVFIFPPSDEQLKSGTASVVCLLNNFYPREAKVQWKVDNALQSGNSQESVTEQDSKDSTYSLSSTLTLSKADYEKHKVYACEVTHQGLSSPVTKSFNRGEC | 102 % of control | 76.8 % of control | 1.33 ratio
GpH7-A5/GpH7-B3 variant D270_16H/GpL16-k0 (antibody, human IgG1, kappa, change in the GpH7-B3 H chain only; also called He Ab) heavy 1: not shown heavy 2: not shown light: DIVMTQSPLSLPVTPGEPASISCQASESLVHSNRNTYLHWYLQKPGQSPQLLIYKVSNRFSGVPDRFSGSGSGTDFTLKISRVEAEDVGVYYCSQNTHVPPTFGQGTKVEIERTVAAPSVFIFPPSDEQLKSGTASVVCLLNNFYPREAKVQWKVDNALQSGNSQESVTEQDSKDSTYSLSSTLTLSKADYEKHKVYACEVTHQGLSSPVTKSFNRGEC | 66 % of control | 47.2 % of control | 1.4 ratio
